Patent publication US20180291110A1 (Hoffmann-La Roche, published 2018)

Target: T1, human transferrin receptor (recombinant, for surface plasmon resonance) (human, UniProt P02786 89-760)
T1 construct: also called huTfR; human transferrin receptor-biotinylated
Test: SPR 25C

T1 sequence (P02786 89-760 limits assumed): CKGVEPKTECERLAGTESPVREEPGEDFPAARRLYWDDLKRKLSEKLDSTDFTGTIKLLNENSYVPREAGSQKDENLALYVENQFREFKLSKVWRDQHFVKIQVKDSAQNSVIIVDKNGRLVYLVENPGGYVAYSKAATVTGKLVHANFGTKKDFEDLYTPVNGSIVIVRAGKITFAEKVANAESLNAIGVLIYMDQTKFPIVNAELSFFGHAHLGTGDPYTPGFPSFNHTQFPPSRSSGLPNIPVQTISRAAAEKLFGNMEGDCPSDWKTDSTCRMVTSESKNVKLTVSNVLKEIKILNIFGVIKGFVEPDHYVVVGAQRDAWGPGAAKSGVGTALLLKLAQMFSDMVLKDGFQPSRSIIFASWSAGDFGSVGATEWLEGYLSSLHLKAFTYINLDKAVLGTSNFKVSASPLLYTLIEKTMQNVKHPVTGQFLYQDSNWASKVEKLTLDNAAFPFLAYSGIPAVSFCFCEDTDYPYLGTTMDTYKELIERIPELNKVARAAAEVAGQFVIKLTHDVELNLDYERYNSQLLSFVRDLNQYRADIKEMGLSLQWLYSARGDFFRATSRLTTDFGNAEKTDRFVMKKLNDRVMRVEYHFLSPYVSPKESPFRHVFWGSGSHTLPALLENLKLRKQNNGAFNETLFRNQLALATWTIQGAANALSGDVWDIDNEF

Row | koff [s⁻¹] | Binder
1 | 0.00187 | 2/99 VH7/VL17 (antibody, V domains shown) VH: QQLVETGGGLIQPGGSLRLSCAASGFSLSSYAMSWVRQAPGKGLEWIGYIWSGGSTDYASWAKGRFTISRDNSKNTLYLQMNSLRAEDTAVYYCARRYGTSYPDYGDANGFDPWGQGTLVTVSS VL: AIQLTQSPSSLSASVGDRVTITCRASQSISSYLAWYQQKPGKAPKLLIYRASTLASGVPSRFSGSGSGTDFTLTISSLQPEDFATYYCQQTYSSSNVDNTFGGGTKVEIK
2 | 0.00745 | 2/99 VH5/VL17 (antibody, V domains shown) VH: QSMEETGGGLIQPGGSLRLSCAASGFSLSSYAMSWVRQAPGKGLEWVGYIWSGGSTDYADSVKGRFTISRDNSKNTLYLQMNSLRAEDTAVYYCARRYGTSYPDYGDANGFDPWGPGTLVTVSS VL: AIQLTQSPSSLSASVGDRVTITCRASQSISSYLAWYQQKPGKAPKLLIYRASTLASGVPSRFSGSGSGTDFTLTISSLQPEDFATYYCQQTYSSSNVDNTFGGGTKVEIK
3 | 0.00192 | 2/99 VH21/VL15 (antibody, V domains shown) VH: QSMQESGPGLVKPSQTLSLTCTVSGFSLSSYAMSWIRQHPGKGLEWIGYIWSGGSTDYASWAKSRVTISVDTSKNQVSLKLSSVTAADTAVYYCARRYGTSYPDYGDANGFDPWGQGTLVTVSS VL: DIVMTQSPDSLAVSLGERATINCKSSQSISSYLIWYQQKPGQPPKLLIYRASTLASGVPDRFSGSGSGTDFTLTISSLQAEDVAVYYCQQAYSSSNVDNTFGGGTKVEIK

Second part, the binder before the results:

Row | Binder | koff [s⁻¹]
4 | 2/99 VH1/VL17 (antibody, V domains shown) VH: VQLVETGGGLIQPGGSLRLSCAASGFSLSSYAMSWVRQAPGKGLEWVGYIWSGGSTDYADSVKGRFTISRDNSKNTLYLQMNSLRAEDTAVYYCARRYGTSYPDYGDANGFDPWGQGTLVTVSS VL: AIQLTQSPSSLSASVGDRVTITCRASQSISSYLAWYQQKPGKAPKLLIYRASTLASGVPSRFSGSGSGTDFTLTISSLQPEDFATYYCQQTYSSSNVDNTFGGGTKVEIK | 0.00756
5 | 2/99 VH8/VL17 (antibody, V domains shown) VH: QQLVETGGGLIQPGGSLRLSCAASGFSLSSYAMSWVRQAPGKGLEWIGYIWSGGSTDYASWAKGRFTISKTSTTLYLQMNSLRAEDTAVYYCARRYGTSYPDYGDANGFDPWGQGTLVTVSS VL: AIQLTQSPSSLSASVGDRVTITCRASQSISSYLAWYQQKPGKAPKLLIYRASTLASGVPSRFSGSGSGTDFTLTISSLQPEDFATYYCQQTYSSSNVDNTFGGGTKVEIK | 0.00112
6 | 2/99 VH6/VL17 (antibody, V domains shown) VH: QQLVETGGGLIQPGGSLRLSCAASGFSLSSYAMSWVRQAPGKGLEWIGYIWSGGSTDYADSVKGRFTISRDNSKNTLYLQMNSLRAEDTAVYYCARRYGTSYPDYGDANGFDPWGQGTLVTVSS VL: AIQLTQSPSSLSASVGDRVTITCRASQSISSYLAWYQQKPGKAPKLLIYRASTLASGVPSRFSGSGSGTDFTLTISSLQPEDFATYYCQQTYSSSNVDNTFGGGTKVEIK | 0.00717
7 | 2/99 VH2/VL17 (antibody, V domains shown) VH: EVQLVETGGGLIQPGGSLRLSCAASGFSLSSYAMSWVRQAPGKGLEWVGYIWSGGSTDYADSVKGRFTISRDNSKNTLYLQMNSLRAEDTAVYYCARRYGTSYPDYGDANGFDPWGQGTLVTVSS VL: AIQLTQSPSSLSASVGDRVTITCRASQSISSYLAWYQQKPGKAPKLLIYRASTLASGVPSRFSGSGSGTDFTLTISSLQPEDFATYYCQQTYSSSNVDNTFGGGTKVEIK | 0.00712
8 | 2/99 VH22/VL15 (antibody, V domains shown) VH: QSMQESGPGLVKPSQTLSLTCTVSGFSLSSYAMSWVRQHPGKGLEWIGYIWSGGSTDYASWAKSRVTISVDTSKNQVSLKLSSVTAADTAVYYCARRYGTSYPDYGDANGFDPWGQGTLVTVSS VL: DIVMTQSPDSLAVSLGERATINCKSSQSISSYLIWYQQKPGQPPKLLIYRASTLASGVPDRFSGSGSGTDFTLTISSLQAEDVAVYYCQQAYSSSNVDNTFGGGTKVEIK | 0.00179
